Results reported in the supplement of paper PMC9170038.

Test system: MS2 coat protein
Assay: apparent KD of MS2 coat protein; designed switch direction (-1 OFF switch, 1 ON switch): 1; higher = weaker reporter binding
Outline: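 Designed RNA switches with common flanks were transcribed on Illumina chips by stalled E. coli RNA polymerase and titrated with SNAP-549-labelled MS2 coat protein, from 0.7 or 1.5 nM doubling to 3 µM, in Tris-HCl pH 7.5 buffer with KCl, MgCl2, BSA, DTT, tRNA and Tween-20. Steps lasted 0.8–1.5 h (lowest) to 10–20 min (highest). Titrations ran without input, with 200 uM small-molecule ligand, or with an oligonucleotide input. Normalised cluster fluorescence was curve-fitted, and apparent KD is the per-design median over clusters.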

[1] = input ligand: microRNA oligo, concentration not stated
[2] = Eterna round: R95, input ligand: FMN 200 uM
[3] = Eterna round: R95, input ligand: microRNA oligo, concentration not stated
[4] = Eterna round: R95, input ligand: none

Sequence | apparent KD of MS2 coat protein (input ligand: FMN 200 uM) [nM] | apparent KD of MS2 coat protein [1] [nM] | apparent KD of MS2 coat protein (input ligand: none) [nM] | apparent KD of MS2 coat protein [2] [nM] | apparent KD of MS2 coat protein [3] [nM] | apparent KD of MS2 coat protein [4] [nM]
GUUAUUUAUGCAGGAUAUGAUUAACAUGAGGAUCACCCAUGUGGUGUUGUGAGUAAGGAGAGUGAUCAGAAGGGCAUUUUUUUU [JMF's solution 77] (Eterna round: R96, puzzle: Same State NG 2) | 626 | 298 | 565 |  |  | 
ACAAGCUUUUCUGCAUUGAAAGGUUGAUAACAUGAGGAUCACCCAUGUUUAUAUGAAAAUAAUGCUCCUCGUCUUAU [JR_SHM208A_Sub094] (puzzle: Sensor for hsa-mir-208a) |  |  |  | 55.4 | 11.4 | 46.9
UUAACAUGAGGAUCACCCAUGUAUACGGAGUUUGCAAUUUGACAGGAUAUUGAAGAUCUAUAUAGCAAGAAGGGUCGUUAGUCU [JR_SSNG3_Sub006] (Eterna round: R96, puzzle: Same State NG 3) | 47.5 | 32.6 | 44.7 |  |  | 
UAUUAGAUCCGAGGAUAUCCUUAUUAGAAACAUGAGGAUCACCCAUGUAAAGGGAAUUAUUUGUAGGAGAAGGCGGAUUUAGUU [JR_SSNG2_Sub056] (Eterna round: R96, puzzle: Same State NG 2) |  | 41.7 |  |  |  | 
AGUCCAGCCUGAGCUGGACAAAAGUAUGUACAUGAGGAUCACCCAUGUCAUGUACAAGCUUUUUGCUCGUUUUAAUA [Zipper 49 - 17] (puzzle: Sensor for hsa-mir-208a) |  |  |  | 424 | 33.8 | 517
AUUAAACAUGAGGAUCACCCAUGUCAACUAAGUCGAGGAUAUGGGCAAAUAAAAUAAGAACCAGAAGGCGAAUAAU [salish99_ss1_r3_074] (puzzle: Same State 1) |  |  |  | 55.9 | 347 | 260
GUGGUCAGACAUGAGGAUCACCCAUGUGGAAUAAAUAAGGAUUAGGAUAUGGAAUAUAGGAUAUACCAGAAGGAAUGGUUGGUG (Eterna round: R96, puzzle: Same State NG 3) |  | 75.8 |  |  |  | 
CCGGCCACACAACAAGGCCAACAUGAGGAUCACCCAUGUACACAGGAUAUCGGCAGCCAAGGCUCCGAGAAGGGUGGUUCAAUU [Beage] (Eterna round: R96, puzzle: Same State NG 3) | 438 | 145 | 234 |  |  | 
AUUAUUGAUGCAGGAUAUGAUUAACAUGAGGAUCACCCAUGUGGUGUUGUGAGUAAGGAGAGUGAUCAGAAGGGCAUUUUUUUU [JMF's solution 23] (Eterna round: R96, puzzle: Same State NG 2) | 747 | 435 | 436 |  |  | 
GCCGGCUAAUGAGGAUAUGGCACCUUAUUGGUGCCAGAAGGCAUGUCAAUUGACAUGAGGAUCACCCAUGUAUUAUAGUUGGCG [salish99_SSNG1_r04_603] (Eterna round: R96, puzzle: Same State NG 1) |  | 211 |  |  |  | 
GCUCGAUGAGAGUCCUACAUGAGGAUCACCCAUGUAUGUGGGCAGGAUAUCUACAUGCAGAAUGUAGAGAAGGGCCCGUCGAGC [SameState NG3 #57] (Eterna round: R96, puzzle: Same State NG 3) | 35.2 | 106 | 187 |  |  | 
CCACUCUGCGGAGGAUAUGGGCCUGCCCGGGAUAACGGGCCUAAUACAUGAGGAUCACCCAUGUCCCAGAAGGCCGCUAGAGCC [Xeusza] (Eterna round: R96, puzzle: Same State NG 2) | 18.8 | 92.4 | 139 |  |  | 
UUGAAGAAUUAAGGAUAUUGAUUACAUAUGUUUAACAUGAGGAUCACCCAUGUGGGUUGCGGUAUCGAGAAGGUAAAAUAAUAG [Mat - same State NG 2 - JL mod - D82] (Eterna round: R96, puzzle: Same State NG 2) | 181 | 231 | 258 |  |  | 
UGUUGGUUUUUGCUCGUUUUUUGUGUUGAACAUGAGGAUCACCCAUGUAUUGUACAGUCCAGUUUGGUAAUGGUGCG [JR_SHM208A_Sub046] (puzzle: Sensor for hsa-mir-208a) |  |  |  | 41.6 | 31.4 | 57.5
GGAGCCGGCCUAGGAUAUUUCAUACAAAAACAUGAGGAUCACCCAUGUAGGCCAGAAGGCCUUGGGAAGAAGGAGGUCGGCUCC [Loop Effect - C25] (Eterna round: R96, puzzle: Same State NG 2) | 14.5 | 16.9 | 34.2 |  |  | 
UUGCUCGUGUGAGGAUAUGCAGCCGUUUCGGCUGCAGAAGGUACUAUAAUACAUGAGGAUCACCCAUGUCUCUGUUGUUUCGUG [salish99_SSNG1_r04_931] (Eterna round: R96, puzzle: Same State NG 1) | 27.3 | 21 | 27.5 |  |  | 

Sequence | apparent KD of MS2 coat protein (input ligand: FMN 200 uM) [nM] | apparent KD of MS2 coat protein [1] [nM] | apparent KD of MS2 coat protein (input ligand: none) [nM] | apparent KD of MS2 coat protein [2] [nM] | apparent KD of MS2 coat protein [3] [nM] | apparent KD of MS2 coat protein [4] [nM]
UAUCUCAUGUAAGGAUAUGCAGCCGUUUCGGCUGCAGAAGGUACUAUAAUACAUGAGGAUCACCCAUGUCUCUCGCAUUGCGAG [JL SSNG1 1.49] (Eterna round: R96, puzzle: Same State NG 1) | 186 | 150 | 293 |  |  | 
AUAAAACAUGAGGAUCACCCAUGUCAACAAAGUCGAGGAUAUGGGCAAAUAAAAUAAGAUCCAGAAGGCGAAUAAU [salish99_ss1_r3_016] (puzzle: Same State 1) |  |  |  | 97.3 | 36.3 | 92.7
UAAAAACAUGAGGAUCACCCAUGUCAAAAGACAUGAGGAUAUGUACAGACUUCGGUCUGUACAGAAGGCAUGAAAA [salish99_ss1_r3_094] (puzzle: Same State 1) |  |  |  | 33.3 | 503 | 362
GGUAUCGACACAGGAUAUGCUAUCCUUUGGGUAGCAGAAGGGUGAACAUGAGGAUCACCCAUGUAGGUGCCAGGGCGUGAGCCC [JL SSNG1 1.79] (Eterna round: R96, puzzle: Same State NG 1) | 368 | 94.1 | 787 |  |  | 
AAAAUACAUGAGGAUCACCCAUGUGAAAAUAUGGGAGGAUAUACCGAAAAAAAAAAAAAGGUAGAAGGCCCAAAAA [SS! 1 MT 5] (Eterna round: R96, puzzle: Same State 1) | 39.5 | 31 | 34.6 |  |  | 
UUACUCAUGUAAGGAUAUGCAGCCGAAACGGCUGCAGAAGGUACUAUAAUACAUGAGGAUCACCCAUGUCUUUUUAAUUUUUAC [Mat - Same State NG 1 - JL mod - D70] (Eterna round: R96, puzzle: Same State NG 1) | 47.5 | 37 | 44.1 |  |  | 
GGUGCCAAAUAAGCCUACAUGAGGAUCACCCAUGUAUGUAGGUAGGAUAUCGUAUGCAAAGCAUACGAGAAGGGCCUAGGCACC [Mat - Same State NG 3 - JL Mod - D60] (Eterna round: R96, puzzle: Same State NG 3) | 18.1 | 37.3 | 60.7 |  |  | 
GGAGAACAUGAGGAUCACCCAUGUGAGCGGUAGCUAGGAUAUGCGGGAAGGAAGAGAGAAGCAGAAGGAGUCGGUA [JR_SS1_Sub033] (puzzle: Same State 1) |  |  |  |  | 34.2 | 
UGUCCAGCCUGAGCUGGACAAAAGCAUGUACAUGAGGAUCACCCAUGUUCAUGUACAAGCUUUUUGCUCGUCUUACC [salish99_208a_r3_083] (puzzle: Sensor for hsa-mir-208a) |  |  |  | 464 | 15.9 | 610
AACAUUCUAUCUGAGGAUAUCAUGAAAUAAACAUGAGGAUCACCCAUGUGCAGGAAAACUGCAUAUGAGAAGGCAGAUAGAUUGA [salish99_ss2_r3_022] (puzzle: Same State 2) |  |  |  | 44.9 | 1870 | 3320
ACUAAAACUGCAGGAUAUGUCCGGAACUCCGUUACAGAAGGGCAACGCACUGUUGAGGGCACGACAUGAGGAUCACCCAUGUAG [Eternabot solution 46] (Eterna round: R96, puzzle: Same State NG 1) | 20.9 | 22.5 | 26.8 |  |  | 
CGUCGUUUGUUAGGAUAUCGCUAUACAUGAGGAUCACCCAUGUUUACCACGCUGGUUUUUCAUACCGAGAAGGAUUCUGAUGUU [salish99_SSNG02_r04_019] (Eterna round: R96, puzzle: Same State NG 2) | 42.5 | 31.6 | 37.8 |  |  | 
UUUUCGAACCGAGGAUAUCCUUAUAAGAAACAUGAGGAUCACCCAUGUAAAGGGAAUUAUUUGUAGGAGAAGGCGGAUUUUGUU [JR_SSNG2_Sub054] (Eterna round: R96, puzzle: Same State NG 2) |  | 33.9 |  |  |  | 
GGUCCAGCCUGAGCUGGACCACAGCAUGUACAUGAGGAUCACCCAUGUCAUGUACAAGCUUUUUGUUUAAAAUAAAA [Sensorship 13 - Jieux - Sensor for hsa-mir-208a] (puzzle: Sensor for hsa-mir-208a) |  |  |  | 261 | 30.5 | 209
GUAAGGCAAGCUUUUUUCUCGUAGUGUAAACAUGAGGAUCACCCAUGUGCUCGCCCUGGAUCUUUGAAUCGCAGAAA [Ritiorreon] (puzzle: Sensor for hsa-mir-208a) |  |  |  | 44.9 | 23.1 | 49.5
